Measurements: IntAct's records for PubMed 22020126

B1: Histone acetyltransferase ESA1 (Saccharomyces cerevisiae), Q08649 (parent)
chain: MSHDGKEEPGIAKKINSVDDIIIKCQCWVQKNDEERLAEILSINTRKAPPKFYVHYVNYNKRLDEWITTDRINLDKEVLYPKLKATDEDNKKQKKKKATNTSETPQDSLQDGVDGFSRENTDVMDLDNLNVQGIKDENISHEDEIKKLRTSGSMTQNPHEVARVRNLNRIIMGKYEIEPWYFSPYPIELTDEDFIYIDDFTLQYFGSKKQYERYRKKCTLRHPPGNEIYRDDYVSFFEIDGRKQRTWCRNLCLLSKLFLDHKTLYYDVDPFLFYCMTRRDELGHHLVGYFSKEKESADGYNVACILTLPQYQRMGYGKLLIEFSYELSKKENKVGSPEKPLSDLGLLSYRAYWSDTLITLLVEHQKEITIDEISSMTSMTTTDILHTAKTLNILRYYKGQHIIFLNEDILDRYNRLKAKKRRTIDPNRLIWKPPVFTASQLRFAW
B2: Histone acetyltransferase KAT8 (Homo sapiens), Q9H7Z6 (parent)
chain: MAAQGAAAAVAAGTSGVAGEGEPGPGENAAAEGTAPSPGRVSPPTPARGEPEVTVEIGETYLCRRPDSTWHSAEVIQSRVNDQEGREEFYVHYVGFNRRLDEWVDKNRLALTKTVKDAVQKNSEKYLSELAEQPERKITRNQKRKHDEINHVQKTYAEMDPTTAALEKEHEAITKVKYVDKIHIGNYEIDAWYFSPFPEDYGKQPKLWLCEYCLKYMKYEKSYRFHLGQCQWRQPPGKEIYRKSNISVYEVDGKDHKIYCQNLCLLAKLFLDHKTLYFDVEPFVFYILTEVDRQGAHIVGYFSKEKESPDGNNVACILTLPPYQRRGYGKFLIAFSYELSKLESTVGSPEKPLSDLGKLSYRSYWSWVLLEILRDFRGTLSIKDLSQMTSITQNDIISTLQSLNMVKYWKGQHVICVTPKLVEEHLKSAQYKKPPITVDSVCLKWAPPKHKQVKLSKK

Variants of: B1
Conditions: with h4_yeast HHF1, P02309

Question: For K262Q, which “effect of a mutation on the interaction” value is on record?
Answer: Its value is “decreasing interaction”.

Variants of: B1
Conditions: with h4_yeast HHF1, P02309
Remark: another data set of the same source

Question: Which “effect of a mutation on the interaction” value does the source give for K262R here?
Answer: The value was “disrupting interaction”.

Variants of: B1
Conditions: with h4_yeast HHF1, P02309
Remark: another data set of the same source

Question: With K262A as the variant, how does the “effect of a mutation on the interaction” value read?
Answer: The value was “disrupting interaction”.

Variants of: B2
Conditions: with h4_yeast HHF1, P02309

Question: How did the “effect of a mutation on the interaction” value turn out when K274R was run?
Answer: Its value is “disrupting interaction”.

Variants of: B2
Conditions: with h4_yeast HHF1, P02309
Remark: another data set of the same source

Question: K274A was tested. Which “effect of a mutation on the interaction” value did it give?
Answer: Its value is “disrupting interaction”.
